Drawing on paper PMC2760139, this text covers stoichiometry N and Kd for 3 substances.

Series [1] has as its target mature dengue virus type 2 capsid (C) protein, wild type, recombinant (dengue virus type 2) (UniProt P29990). The series is described as follows: SEC-MALS. For orientation: Size exclusion chromatography separates by hydrodynamic size, large species first.
Series [2] deals with DENV2 capsid protein C, mature WT (Dengue virus type 2 (cDNA clone GenBank U87411)). Briefly: filter binding.
The target of series [3] is mature dengue virus type 2 capsid (C) protein with substitutions L50S-L54S, recombinant (dengue virus type 2) (UniProt P29990). Briefly: SEC-MALS.

As usually defined, the stoichiometry N is a count of units in the complex or per binding partner. For orientation: Kd means the equilibrium constant for the complex coming apart. A lower Kd goes with higher affinity.

For the substance “mature dengue virus type 2 capsid (C) protein, wild type, recombinant (from UniProt P29990) (natural protein)”, the stoichiometry N in series [1] is 2. “DENV 5'UTR RNA probe (viral 5' terminal region nt 1-160)” gave a Kd in series [2] of 22 nM. For the substance “mature dengue virus type 2 capsid (C) protein with substitutions L50S-L54S, recombinant (from UniProt P29990 1-100) (natural protein)”, the stoichiometry N in series [3] stood at 2.
